In US20250376498A1, “FUSION PROTEINS COMPRISING AN IMPROVED GLP-1 RECEPTOR AGONIST AND USES THEREOF” (Guangzhou Innogen Pharmaceutical Group Co., Ltd., priority 2022, published 2025):
Where “and” joins values, the source holds several entries; their conditions need not be identical. Identical values can stand only once.

Assays:
obese rhesus monkeys = assay: Obese rhesus monkeys, body weight; type: in vivo; conditions: for body weight decrease compared to baseline: at D28
Description: The obese rhesus monkeys used in this study were sourced from Sichuan Primate Biotechnology Co., Ltd. Fifteen male obese rhesus monkeys, aged 8-21 years (equivalent to 30-60 years in humans), with a body weight of 9.25-15.70 kg, fasting plasma glucose (FPG) levels between 5.50-8.58 mmol/L, and HbA1c levels between 4.5-5.0%, were selected. These monkeys were within the first year of disease onset and had not received any medication. Their liver and kidney functions were normal. The animals were stratified based on FPG levels and randomly assigned to different groups. The selected animals underwent an intravenous glucose tolerance test (IVGTT) to measure blood glucose and insulin levels before the administration of the test compounds. The experimental groups included a placebo group and two YN-011 treatment groups: YN-011 50 μg/kg and YN-011 25 μg/kg, with 5 animals in each group. The treatments were administered via subcutaneous injections (SC) once a week for 4 consecutive weeks, specifically on Day 0 (DO), Day 7 (D7), Day 14 (D14), and Day 21 (D21).

NASH Rhesus monkeys = assay: NASH Rhesus monkeys, MRI-PDFF quantitative analysis of hepatic steatosis; type: in vivo; conditions: for percentage reduction of MRI-PDFF liver fat compared to baseline: end of the treatment; for Change rate (%) of liver lipid content: (current - baseline)/baseline
Description: The GE 3.0T MRI scanner (750W3T MRI, GE Healthcare) was used for liver imaging in this study. The IDEAL-IQ sequence was employed, which combines the IDEAL (Iterative Decomposition of water and fat with Echo Asymmetry and Least-squares estimation) technique with fast three-dimensional multi-echo imaging. This technique includes multi-echo water-fat separation, region-growing algorithm, as well as various imaging methods for tissue fat quantification and R2* relaxation rate. Six contrast images, including in-phase, opposed-phase, water-only, fat-only, fat fraction maps, and R2* maps, were acquired through a single breath-hold scan by collecting signals from six different echo time (TE) values. The images were reconstructed using computer algorithms to obtain the aforementioned contrast images. The IDEAL-IQ hybrid water-fat separation algorithm consisted of two steps. The first step involved complex domain reconstruction to obtain water and fat images, as well as the T2* map. The second step generated an additional set of estimated water and fat images. These two sets of images were then combined using a hybrid algorithm to generate the final water and fat images.
Prior to conducting the experiment, a Phantom test was performed. Five standard fat solutions with known fat content were prepared by modifying the body phantom preparation method used by Clare P. et al.. Pure water was used as 0% fat. Sodium dodecyl sulfate (60 mmol) was dissolved in 1 L of deionized water, heated to 50° C., and then 40 g of gelatin was added and mixed thoroughly. […] of the aforementioned solution, respectively, to prepare solutions with fat contents of 0%, 2.5%, 5%, 10%, 20%, and 100%. These solutions were filled into six 100 ml EP tubes for subsequent scanning procedures.
Phantom validation experiments were performed before each scan. All animals underwent a baseline scan and one additional scan after the completion of the drug administration, totaling two scans. The anesthesia procedure was as follows: intramuscular injection of 10 mg/kg ketamine hydrochloride, endotracheal intubation, and maintenance of anesthesia with isoflurane and oxygen using a ventilator. During the scanning process, veterinary monitoring of electrocardiogramad oxygenation, respiratory rate, etc., was performed, and veterinary supervision was provided until the animals fully recovered consciousness and resumed spontaneous respiration.
Image Post-processing and Analysis: The collected and stored Hepatic steatosis MRI images of Rhesus monkeys were analyzed using the 750W 3T MRI workstation. The liver MRI images were selected by choosing the planes with the maximum exposure of the right hepatic lobe area (layers 1-3), avoiding large blood vessels, bile ducts, and gallbladder to prevent volume effects. Regions of interest (ROI) were selected, with each ROI having an area of 90-110 mm^2. Hepatic steatosis was defined as MRI-PDFF % (Magnetic Resonance Imaging Proton Density Fat Fraction)>6% (consistent with clinical standards).
Fifteen Rhesus monkeys were divided into 3 groups, with 5 monkeys in each group. They received subcutaneous injections of 0 (solvent control, placebo control group), 0.050, or 0.150 mg/kg of YN-011 once a week for 13 weeks (QW). The 0.150 mg/kg YN-011 group received adaptive dosing (0.1 mg/kg for the first dose, followed by 0.150 mg/kg for the remaining 12 doses).

B1: YN-011: GLP-1 fusion protein of SEQ ID NO: 7: GLP-1 (A8G, G22E, R36G), linker peptide and IgG2/Fc domain (C222S, A330S, P331S) (protein)
chain: HGEGTFTSDVSSYLEEQAAKEFIAWLVKGGGSSGAPPPSGGGGSERKSCVECPPCPAPPVAGPSVFLFPPKPKDTLMISRTPEVTCVVVDVSHEDPEVQFNWYVDGVEVHNAKTKPREEQFNSTFRVVSVLTVVHQDWLNGKEYKCKVSNKGLPSSIEKTISKTKGQPREPQVYTLPPSREEMTKNQVSLTCLVKGFYPSDIAVEWESNGQPENNYKTTPPMLDSDGSFFLYSKLTVDKSRWQQGNVFSCSVMHEALHNHYTQKSLSLSPG
Obese rhesus monkeys; 25 μg/kg SC once a week, D 1 baseline value (before administration)
  BW: 12.72 kg
Obese rhesus monkeys; 25 μg/kg SC once a week, D 7
  BW: 12.39 kg
Obese rhesus monkeys; 25 μg/kg SC once a week, D 14
  BW: 12.16 kg
Obese rhesus monkeys; 25 μg/kg SC once a week, D 21
  BW: 12.06 kg
Obese rhesus monkeys; 25 μg/kg SC once a week, D 28
  BW: 11.84 kg
Obese rhesus monkeys; 25 μg/kg SC once a week, D 35
  BW: 12.05 kg
Obese rhesus monkeys; 25 μg/kg SC once a week, D 42
  BW: 12.03 kg
Obese rhesus monkeys; 25 μg/kg, D14 and D21 (P<0.05)
  BW compared to the placebo group: significantly decreased
Obese rhesus monkeys; 25 μg/kg
  body weight decrease compared to baseline: 6.17%
Obese rhesus monkeys; 50 μg/kg SC once a week, D 1 baseline value (before administration)
  BW: 10.29 kg
Obese rhesus monkeys; 50 μg/kg SC once a week, D 7
  BW: 9.85 kg
Obese rhesus monkeys; 50 μg/kg SC once a week, D 14
  BW: 9.64 kg
Obese rhesus monkeys; 50 μg/kg SC once a week, D 21
  BW: 9.63 kg
Obese rhesus monkeys; 50 μg/kg SC once a week, D 28
  BW: 9.52 kg
Obese rhesus monkeys; 50 μg/kg SC once a week, D 35
  BW: 9.79 kg
Obese rhesus monkeys; 50 μg/kg SC once a week, D 42
  BW: 9.81 kg
Obese rhesus monkeys; 50 μg/kg
  body weight decrease compared to baseline: 7.32%
Obese rhesus monkeys; 50 μg/kg, from D7 to D28 (P<0.05 or P<0.01)
  BW compared to the placebo group: significantly or extremely significantly decreased
NASH Rhesus monkeys; 50 μg/kg
  percentage reduction of MRI-PDFF liver fat compared to baseline: 43.8%
NASH Rhesus monkeys; 0.05 mg/kg group, 0.05 mg/kg
  Average ROI Baseline (%) (liver lipid content, MRI-PDFF): 9.0%±0.9% and 9.0 ± 0.9%
NASH Rhesus monkeys; 0.05 mg/kg sc QW, 0.05 mg/kg
  Mean ROI at day 80 of dosing (%) (liver lipid content, MRI-PDFF): 5.0%±0.2% and 5.0 ± 0.2** %
NASH Rhesus monkeys; 0.05 mg/kg sc QW
  Change rate (%) of liver lipid content: −43.8 ± 7.4 %
NASH Rhesus monkeys; 0.15 mg/kg group, 0.15 mg/kg
  Average ROI Baseline (%) (liver lipid content, MRI-PDFF): 9.4%±1.5% and 9.4 ± 1.5%
NASH Rhesus monkeys; 0.15 mg/kg sc QW, 0.15 mg/kg
  Mean ROI at day 80 of dosing (%) (liver lipid content, MRI-PDFF): 5.6%±1.5% and 5.6 ± 1.5** %
NASH Rhesus monkeys; 0.15 mg/kg sc QW
  Change rate (%) of liver lipid content: −39.7 ± 14.2 %
NASH Rhesus monkeys; 150 μg/kg
  percentage reduction of MRI-PDFF liver fat compared to baseline: 39.7%
NASH Rhesus monkeys; after 13 weeks of weekly treatment
  decrease of liver lipid content compared to the placebo control group: approximately 40%
